Where a chain is given by its changes, count along the chain named.
T1: human GPRC5D (human)
T1 chain: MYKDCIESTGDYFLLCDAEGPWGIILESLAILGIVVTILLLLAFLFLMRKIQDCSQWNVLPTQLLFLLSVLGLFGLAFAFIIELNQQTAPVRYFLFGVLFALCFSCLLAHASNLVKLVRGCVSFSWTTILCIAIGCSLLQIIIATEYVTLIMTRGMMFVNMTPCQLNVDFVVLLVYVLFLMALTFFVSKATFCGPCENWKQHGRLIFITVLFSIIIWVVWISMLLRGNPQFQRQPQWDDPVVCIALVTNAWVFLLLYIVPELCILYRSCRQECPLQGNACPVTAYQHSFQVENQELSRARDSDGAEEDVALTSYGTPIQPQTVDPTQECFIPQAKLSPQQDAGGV

B1: HAB04-H7 (antibody, V domains shown)
VH: EVQLVASGGGLVQPGGSLRLSCAASGFPYSTSRMGWFRQAPGKEREGVATIVPGTGYTYYVDSVKGRFTISQDNAKNSLYLQMNSLRAEDTAVYYCAAGDRRLLLNLLAPADYFYWGQGTMVTVSS
B2: HAB04-H3 (antibody, V domains shown)
VH: B1 VH with A6E
B3: HAB04-H4 (antibody, V domains shown)
VH: B1 VH with A6E, N74S
B4: HAB04-H14 (antibody, V domains shown)
VH: B1 VH with V61A
B5: HAB04-H10 (antibody, V domains shown)
VH: B1 VH with N74S
B6: HAB04-H8 (antibody, V domains shown)
VH: B1 VH with V5Q, A6E, A23V
B7: HAB04-H5 (antibody, V domains shown)
VH: B1 VH with A6E, M34V, L79V
B8: Lab04-huFc (antibody, V domains shown)
VH: EVQLQASGGGSVQAGGSLRLSCVASGFPYSTSRVGWFRQAPGKEREGVATIVPGTGYTYYADSVKGRFTISQDSAKNTVYLQMNSLKPEDTAVYYCAAGDRRLLLNLLAPADYFYWGQGTQVTVSS
B9: Lab01-huFc (antibody, V domains shown)
VH: EVQLQASGGGSVQAGGSRRLSCVASGYAGGIAYMAWFRQTPGKGREGVALIATSGTTSYANSVKGRFTIFRDGADNTVYLEMSSLKPEDTATYYCAAKSRLGWPGLETSQFKYWGQGTQVTVSS
B10: HAB01-H1 (antibody, V domains shown)
VH: EVQLVESGGGLVQPGGSLRLSCAASGYAGGIAYMAWFRQAPGKGREGVANIATSGTTYYVDSVKGRFTISRDGAKNSLYLQMNSLRAEDTAVYYCAAKSRLGWPGLETSQFKYWGQGTMVTVSS
B11: HAB01-H6 (antibody, V domains shown)
VH: B10 VH with E6A, N50L, Y58S, L78V
B12: HAB01-H8 (antibody, V domains shown)
VH: B10 VH with N50L, Y58S, K75D, L78V
B13: HAB01-H3 (antibody, V domains shown)
VH: B10 VH with N50L, Y58S
B14: Lab02-huFc (antibody, V domains shown)
VH: DVQLQASGGGSVQAGESLRLSCAASGYLYMGWFRQAPGKEREGVAAIVTQSGLTGYADSVKGRFTISQDNAENRIYLQMNSLKPEDTAMYYCAAKSRLGWTLSPSAYNYWGRGTQVTVSS
B15: HAB02-H2 (antibody, V domains shown)
VH: EVQLVESGGGVVQPGRSLRLSCAASGYLYMGWFRQAPGKEREGVAVIVTQSGLTYYADSVKGRFTISQDNSKNRLYLQMNSLRAEDTAVYYCAAKSRLGWTLSPSAYNYWGRGTLVTVSS
B16: HAB02-H3 (antibody, V domains shown)
VH: B15 VH with V46A
B17: HAB02-H8 (antibody, V domains shown)
VH: B15 VH with V46A, Y55G, L75I
B18: HAB02-H6 (antibody, V domains shown)
VH: B15 VH with E1D, V46A, Y55G
B19: HAB02-H7 (antibody, V domains shown)
VH: B15 VH with V5Q, E6A, V46A, Y55G
B20: HAB02-H4 (antibody, V domains shown)
VH: B15 VH with V46A, Y55G
B21: HAB02-H5 (antibody, V domains shown)
VH: B15 VH with V46A, Y55G, S71A
B22: HAB02-H1 (antibody, V domains shown)
VH: B15 VH with Q68R
B23: HAB03-H11 (antibody, V domains shown)
VH: DVQLVESGGGLVQPGGSLRLSCAASGDTANCIGWFRQAPGKGREGVAAIYTGLGNTYYANSAKGRFTISQDNAKNSVYLQMNSLRAEDTAVYYCAAGGILGRFCSRYFGQGTMVTVSS
B24: HAB03-H12 (antibody, V domains shown)
VH: B23 VH with D1E, E6A
B25: HAB03-H9 (antibody, V domains shown)
VH: B23 VH with D1E, N30S
B26: HAB03-H8 (antibody, V domains shown)
VH: B23 VH with D1E, R43L
B27: HAB03-H5 (antibody, V domains shown)
VH: B23 VH with D1E
B28: HAB03-H10 (antibody, V domains shown)
VH: B23 VH with D1E, Q70R
B29: Lab03-huFc (antibody, V domains shown)
VH: DVQLQASGGGSVQAGGSLRLSCAASGDTANCIGWFRQAPGKGREGVAAIYTGLGNTYYANSAKGRFTIAQDNAKNTVYLQMNSLKPEDSAMYYCAAGGILGRFCSRYFGQGTQVTVSS

Target: T1, human GPRC5D
Experiment: ELISA

EC50 | Binder
0.0533 nM | B1
0.034 nM | B2
0.0382 nM | B3
0.0349 nM | B4
0.0481 nM | B5
0.0311 nM | B6
0.0333 nM | B7
0.0353 nM | B8

Target: T1, human GPRC5D
Experiment: ELISA
Remark: another data set of the same source

EC50 | Binder
0.0182 nM | B9
0.023 nM | B10
0.0178 nM | B11
0.0336 nM | B12
0.0259 nM | B13

Target: T1, human GPRC5D
Experiment: ELISA
Remark: another data set of the same source

EC50 | Binder
0.053 nM | B14
0.0381 nM | B15
0.042 nM | B16
0.0409 nM | B17
0.0362 nM | B18
0.0396 nM | B19
0.0395 nM | B20
0.0406 nM | B21
0.0405 nM | B22

Target: T1, human GPRC5D
Experiment: ELISA
Remark: another data set of the same source

EC50 | Binder
0.0338 nM | B23
0.0307 nM | B24
0.0326 nM | B25
0.0462 nM | B26
0.0353 nM | B27
0.0324 nM | B28
0.0319 nM | B29

Target: T1, human GPRC5D
Experiment: FACS molp-8

EC50 | Binder
0.625 nM | B9
3.3 nM | B10
0.755 nM | B11
1.24 nM | B12
1.37 nM | B13

Target: T1, human GPRC5D
Experiment: FACS molp-8
Remark: another data set of the same source

EC50 | Binder
0.875 nM | B14
0.742 nM | B15
1.6 nM | B16
1.06 nM | B17
1.54 nM | B18
0.547 nM | B19
1.3 nM | B20
1.06 nM | B21
0.602 nM | B22

Target: T1, human GPRC5D
Experiment: FACS molp-8
Remark: another data set of the same source

EC50 | Binder
2.67 nM | B1
3.04 nM | B2
2.71 nM | B3
1.35 nM | B4
4.3 nM | B5
1.74 nM | B6
2.8 nM | B7
1.97 nM | B8

Target: T1, human GPRC5D
Experiment: FACS molp-8
Remark: another data set of the same source

EC50 | Binder
0.812 nM | B23
0.642 nM | B24
0.849 nM | B25
1.22 nM | B26
0.738 nM | B27
0.762 nM | B28
0.599 nM | B29

Target: T1, human GPRC5D
Experiment: FACS NCI-H929

EC50 | Binder
0.672 nM | B14
0.299 nM | B15
0.51 nM | B16
0.401 nM | B17
0.317 nM | B18
0.22 nM | B19
0.438 nM | B20
0.501 nM | B21
0.312 nM | B22

Target: T1, human GPRC5D
Experiment: FACS NCI-H929
Remark: another data set of the same source

EC50 | Binder
1.34 nM | B1
1.35 nM | B2
1.41 nM | B3
0.711 nM | B4
1.21 nM | B5
1.28 nM | B6
1.02 nM | B7
0.915 nM | B8

Target: T1, human GPRC5D
Experiment: FACS NCI-H929
Remark: another data set of the same source

EC50 | Binder
1.12 nM | B23
0.808 nM | B24
0.895 nM | B25
1.41 nM | B26
0.892 nM | B27
0.944 nM | B28
0.909 nM | B29

Target: T1, human GPRC5D
Experiment: FACS NCI-H929
Remark: another data set of the same source

EC50 | Binder
0.653 nM | B9
1.63 nM | B10
0.666 nM | B11
1.41 nM | B12
1.02 nM | B13

Target: T1, human GPRC5D
Experiment: FACS RPMI-8226

EC50 | Binder
0.627 nM | B23
51.1 nM | B24
0.777 nM | B25
0.66 nM | B26
41.5 nM | B27
1.43 nM | B28
0.603 nM | B29

Target: T1, human GPRC5D
Experiment: FACS RPMI-8226
Remark: another data set of the same source

EC50 | Binder
2.08 nM | B9
103 nM | B10
25.7 nM | B11
1.77 nM | B12
36 nM | B13

Target: T1, human GPRC5D
Experiment: FACS RPMI-8226
Remark: another data set of the same source

EC50 | Binder
1.75 nM | B14
3.56 nM | B15
1.88 nM | B16
1.5 nM | B17
10.2 nM | B18
0.257 nM | B19
47.9 nM | B20
1.76 nM | B21
3.72 nM | B22

Target: T1, human GPRC5D
Experiment: FACS RPMI-8226
Remark: another data set of the same source

EC50 | Binder
2.42 nM | B1
2.81 nM | B2
2.29 nM | B3
1.64 nM | B4
3.05 nM | B5
1.68 nM | B6
2.05 nM | B7
2.49 nM | B8

— patent publication US20260285971 (published 2026)
